Experimental data: patent US20250340623A1

How the values were obtained:
[1] = target: alpha-synuclein fibrils, P37840; assay: SPR, captured mAb; settings: remark: other sources report otherwise
[2] = target: monomeric alpha-synuclein, P37840; assay: SPR, captured mAb; settings: remark: other sources report otherwise

| Kd [1] | koff [1] | kon [1] | Kd [2] | koff [2] | kon [2] | Binder |
| --- | --- | --- | --- | --- | --- | --- |
| 30.6 nM | 0.00135 s⁻¹ | 46000 M⁻¹ s⁻¹ | 8 nM | 0.00103 s⁻¹ | 129000 M⁻¹ s⁻¹ | ACI-7067-1102G3-Ab1 (antibody, V domains shown) VH: EVKLEESGGGLVQPGGSMKLSCAASGFTFSDAWMNWVRQSPEKGLEWVAEIRNKAHNHATYYAESVKGRFTISGDDSKSSVYLQMNNLRAEDTGIYYCTIYSYWGQGTLVTVSA VL: SIVMTQTPKFLLVSAGDRVTITCKASQSVTKDVAWYQQKPGQSPKLLIYSTSNRYSGVPDRFTGSGYGTDFTFTINTVQTEDLAVYFCQQDYRIPYTFGGGTKLEIK |
| 91.9 nM | 0.000476 s⁻¹ | 5190 M⁻¹ s⁻¹ | 7.6 nM | 0.000615 s⁻¹ | 80900 M⁻¹ s⁻¹ | ACI-7079-2506E2-Ab2 (antibody, V domains shown) VH: QVQLQQSGPELVRPGASVKISCKASGYAFSNSWMNWVKQRPGKGLEWIGRIFPGDGDTYYDGKFKGKVKLTTDKFSNTAYMQLRSLTSEDSAVYFCARWGGTNDEWFAHWGQGTLVTVSV VL: DIVLTQSPASLTVSLGQRATISCRASQSVSTSRNSYMHWYQQKPRQPPKLLIKYASNLESGVPARFSGSGSGADFTLNIHPVEEEDTATYYCQHSWDIPLTFGTGTKLELS |
| 56.2 nM | 0.000862 s⁻¹ | 15400 M⁻¹ s⁻¹ | 4.8 nM | 0.00412 s⁻¹ | 860000 M⁻¹ s⁻¹ | ACI-7079-2606A6-Ab2 (antibody, V domains shown) VH: QVQLQQSGPELVKPGASVKISCKASGFAFSSSWMNWVKQRPGKGLEWVGRIFPGDGDTNYDRKFKDKATLTADKSSSTAYMQLSSLTSEDSAVYFCARWTGGYDWFAYWGQGTLVTVSA VL: DIVLTQSPASLAVSLGQRATISCRASQSVSTSNYNYLHWYQQKPGQPPKLLITYASNLESGVPARFSGSGSGTDFTLNIHPVEEGDTATYYCQHSWEIPLTFGAGTKLELK |
| 0.1 nM | 4.37e-06 s⁻¹ | 30600 M⁻¹ s⁻¹ | – | – | – | ACI-8033-5A12-Ab1 (antibody, V domains shown) VH: QVHLKQSGADLVRPGASVKLSCKASGYTFTDYYINWVKQRPGQGLEWIARIYPGSGNTYYNEKFKGRATLSAEKSSTTAYMQLSSLTSEDSAVYFCVVGYYGAWGQGTTLTVSS VL: DVVMTQTPLSLPVSLGDQASISCRSSQSLVHSNGKTHLHWYLQKPGQSPKLLIYKVSNRFSGVPDRFSGSGSGTDFTLKISRVEAEDLGVYFCSQSTHVPWTFGGGTKLEIK |
| 16.1 nM | 0.00218 s⁻¹ | 345000 M⁻¹ s⁻¹ | 7.2 nM | 0.00114 s⁻¹ | 158000 M⁻¹ s⁻¹ | ACI-7067-1107G5-Ab2 (antibody, V domains shown) VH: QVQLQQPGTELVKPGASVKLSCKASGYTFTKYWMHWVKQRPGQGLEWIGNINPNNGDTNYNEKFKSKATLTVDKSSSTAYMQLSSLTSEDSAVYYCAIAMDYWGQGTSVTVSS VL: DIQMTQSPSSLSAFLGERVSLTCRASQDIGNNLNWFQQEPDGTIKRLIYATSSLDSGVPKRFSGSRSGSEYSLTISSLESEDFVDYYCLQFGSSPLTFGAGTKLELK |
| 86.5 nM | 0.000898 s⁻¹ | 10400 M⁻¹ s⁻¹ | 119 nM | 0.00329 s⁻¹ | 27600 M⁻¹ s⁻¹ | ACI-7088-4301H3-Ab2 (antibody, V domains shown) VH: EVQLQQSGPELVKPGASVKISCKASGYTFADYFMNWVKQSHGKSLEWIGDINPNNGGTTYNQKFKGKATLTVDKSSNTAYMELRSLTSEDSAVYYCARGRNYAMDYWGQGTSVTVSS VL: DIVMSQSPSSLAVSAGEKVTMSCKSSQSLLNSRTRKNYLAWYQQKPGQSPKLLIYSASTRESGVPDRFTGSGFGTDFTLTISSVQAEDLAVYYCKQSYDLWTFGGGTKLEIK |
| 34.9 nM | 0.000668 s⁻¹ | 19100 M⁻¹ s⁻¹ | 2.6 nM | 0.000642 s⁻¹ | 245000 M⁻¹ s⁻¹ | ACI-7079-2507B3-Ab1 (antibody, V domains shown) VH: EVQLVESGGGLVQPKGSLKVSCAASGFTFKTYAMHWVRQAPGKGLEWVARIRSENSNFAKYYADSVKDRFTISRDDSQSMLYLQMHTLKTEDTAIYYCVRGYNGSSLDYWGQGTTLTVSS VL: QIVLTQSPAIMSAFPGERVTMTCSASSSVNYMHWYQQKSGTSPKRWIYDTSKLASGVPARFSGGGSGTSYSLTISNMEAEDAATYYCQQWRSNPPTFGGGTKLEIK |
| 25 nM | 0.00721 s⁻¹ | 284000 M⁻¹ s⁻¹ | 23.2 nM | 0.005 s⁻¹ | 218000 M⁻¹ s⁻¹ | ACI-7067-1106A8-Ab2 (antibody, V domains shown) VH: EVQLVESGGGLVQPKGSLKLSCAASGFTFNTYAMHWVRQAPGKGLEWVARIRSKGSNYATNYADSVKDRFTISRDDSQSMLYLQMNNLKTEDTAMYYCVRGHGSSYFSYWGQGTLVTVSA VL: QIVLTQSPAIMSASPGEKVTMTCSASSSVSYMHWYQQKSGTSPKRWIYDTSNLASGVPARFSGSGSGTSYSLTISSMEAEDAATYYCQQWNSHPPTFGAGTKLELK |
| 29.5 nM | 0.000312 s⁻¹ | 10600 M⁻¹ s⁻¹ | 6.3 nM | 0.000583 s⁻¹ | 92800 M⁻¹ s⁻¹ | ACI-7079-2511B3-Ab3 (antibody, V domains shown) VH: DVQLQESGPGLVKPSQSLSLTCSVTGFSITSYYYWNWIRQFPGNKLEWMAYISYDGSNNYNPSLKNRISITRDTSKNQFFLKLNSVTTEDTATYYCTRGDWDWGQGTLVTVSA VL: not shown |
| 8.8 nM | 0.000161 s⁻¹ | 18300 M⁻¹ s⁻¹ | 2.4 nM | 0.00051 s⁻¹ | 210000 M⁻¹ s⁻¹ | ACI-7079-2506F3-Ab1 (antibody, V domains shown) VH: QVQLQQPGAELVKPGASVKLSCKASGYTFTTYWMQWVKQRPGQGLEWIGEIDPSDSYINYNQKFKGKATLTVDTSSSTAFMQLSSLTSEDSAVYYCARGMMDYWGQGTSVTVSS VL: DVLMTQTPLSLPVSLGDQASISCRSSQSIVHSNGNTYLEWYLQKPGQSPKLLIYKVSNRFSGVPDRFSGSGSGTDFTLKISRVEAEDLGVYYCFKGSHVPYTFGGGTKLEIK |
| 3.7 nM | 6.54e-05 s⁻¹ | 17700 M⁻¹ s⁻¹ | – | – | – | ACI-8033-1G10-Ab1 (antibody, V domains shown) VH: DVQLQESGPGLVKPSQTVFLTCTVTGISITTGNYRWSWIRQFPGNKLEWIGYIYYSGTITYNPSLTSRTTITRDTPKNQFFLEMNSLTAEDTATYYCARIYYGNAMDYWGQGTSVTVSS VL: DVVMTQTPLSLPVSLGDQASISCRSSQSLVHSNGNTYLHWYLQKPGQSPKLLIYKVSNRFSGVPDRFSGSGSGTDFTLKISRVEAEDLGVYFCSQSTHVPHTFGGGTKLEIK |
| 9.4 nM | 0.000606 s⁻¹ | 64700 M⁻¹ s⁻¹ | 1 nM | 0.00107 s⁻¹ | 1.04e+06 M⁻¹ s⁻¹ | ACI-7088-4303A3-Ab1 (antibody, V domains shown) VH: QVQLQQSGAELVRPGASVTLSCKASGYTFTDYEMHWVKQTPVHGLEWIGVIDPETGGAVQNQKFKGKAILTADNSSSTAYMDLRSLTSEDSAVYNCAMGAALRLAYWGQGTLVTVSS VL: DVLMTQTPLSLPVSLGDQASISCRSSQSIVHSNGNSYLEWYLQKPGQSPKLLIYKVSNRFSGVPDRFSGSGSGTDFTLKINRVEAEDLGVYYCFQGSHVPFTFGSGTKLEIK |
| 13.5 nM | 0.000244 s⁻¹ | 18100 M⁻¹ s⁻¹ | 37.1 nM | 0.0632 s⁻¹ | 1.7e+06 M⁻¹ s⁻¹ | ACI-7088-4303A1-Ab1 (antibody, V domains shown) VH: EVQLQQSGAELVRPGASVKLSCTASGFNIKDDYMHWVKQRPEQGLEWIGWIDPENGDSEYASKFQGKATMTADTSSNTAYLQLSSLTSEDTAVYYCKTWGTAQALFPYWGQGTLVTVSA VL: DIVMTQSQKFMSTSVGDRVSITCKASQNVGTSVGWYQQKAGQSPKLLIHSASNRYTGVPDRFTGSGSGTDFTLTINNMQSEDLADYFCQQYRSYPLTFGAGTKLELK |
| 8.4 nM | 0.000203 s⁻¹ | 24200 M⁻¹ s⁻¹ | 3.4 nM | 0.0924 s⁻¹ | 2.73e+07 M⁻¹ s⁻¹ | ACI-7088-4305H7-Ab1 (antibody, V domains shown) VH: EVQLQQSGAELVRPGASVKLSCTASGFNIKDDYMHWVKQRPEQGLEWIGWIDPENGDTEYASKFQGKATMIADTSSNTAYLQLSSLTSEDTAVYYCKTWGTTQALFPYWGQGTLVTVSS VL: DIVMTQSQKFMSTSVGDRVSITCKASQNVGTAVGWYQQKAGQSPKLLIHSASNRYTGVPDRFTGSGSGTDFTLTINNMQSEDLADYFCQQYRSYPLTFGAGTKLELK |
| 43.7 nM | 0.000636 s⁻¹ | 14600 M⁻¹ s⁻¹ | 195 nM | 0.0067 s⁻¹ | 34400 M⁻¹ s⁻¹ | ACI-7088-4303H6-Ab1 (antibody, V domains shown) VH: EVQLQQSGAELVRPGASVKLSCTASGFNIQDDYMHWVKQRPEQGLEWIGWIDPENGDTEYASKFQGKATLTADTSSNTAYLQLSRLTSEDTAVYYCTTAGSGVQLFDYWGQGTTLTVSA VL: DILMTQSQKFMSTSVGDRVSVTCKASQNVGTNVAWYQQKPGQSPKPLISSASSRYSGVPDRFTGSGSGTDFTLTISNVQSEDLADYFCQQYNRYPLTFGAGTKLELK |
| 18.9 nM | 0.000234 s⁻¹ | 12400 M⁻¹ s⁻¹ | 3.9 nM | 0.000867 s⁻¹ | 223000 M⁻¹ s⁻¹ | ACI-7079-2602G4-Ab4 (antibody, V domains shown) VH: EVQLVESGGGLVQPKGSLKLSCAASGFTFKTYAMHWVRQAPGKGLEWVARIRSKGSDYATYYADSVKDRFTISRDDSQSMLYLQMNNLKTEDTAMYFCVRGGADSWFAYWGQGTLVTVST VL: QIVLTQSPAIMSASPGERITMTCTASSSVSYMHWYQQKSGTSPKRWIYDTSKLASGVPARFSGSGSGASYTLTISSMEAEDAATYYCQQWNRNPPTFGGGTQLAIK |
| 17.4 nM | 0.000294 s⁻¹ | 16800 M⁻¹ s⁻¹ | 3.9 nM | 0.00109 s⁻¹ | 283000 M⁻¹ s⁻¹ | ACI-7079-2605B3-Ab2 (antibody, V domains shown) VH: EVQLVESGGGLVQPKGSLKLSCAASGFIFKTYAMHWVRQAPGKGLEWVARIRSKGGNYATYFADSVKDRFTISRDDSQNMLYLQVNNLKIEDTAMYFCVRGGNYSWFAYWGQGTLVTVSA VL: QIVLTQSPAIMSASPGEKVTMTCSASSSVTYMHWYQQKSGTSPKRWIYDTSQLASGVPARFSGSGSGTSHSLTISSMETEDAATYYCQQWTRNPPTFGGGTKLAIK |
| 40.3 nM | 51.7 s⁻¹ | 1.28e+09 M⁻¹ s⁻¹ | 10.9 nM | 6.06 s⁻¹ | 5.58e+08 M⁻¹ s⁻¹ | ACI-7079-2603C1-Ab3 (antibody, V domains shown) VH: QVQLQQPGADLVKPGASVKLSCKASGYTFTSYWMQWTKQRPGQGLEWIGEIDPSDSYANYNQKFKGKATLTVDKYSSTAYMQLNSLTSEDSAVYYCALYDGPSYWGQGTLVTVS VL: ENVLTQSPAIMSASPGEKVTMTCSAGSSVSYMHWFQQKSSTSPKLWIYDTSKLPSGVPGRFSGSGSGNSYSLTISSMEAEDVATYYCFQGSGYPYTFGGGTKLEIK |
